The chains are these.
T1: recombinant histidine-tagged canine interleukin-13 (cIL-13) (canine, UniProt Q9N0W9 19-131, N-linked glycans attached to asparagine residues at positions 38, 48, 56, and 71)
T1 construct: mature; Secreted from ExpiCHO-S cells and purified by IMAC; also called canine IL-13; Canis Interleukin-13
T1 sequence: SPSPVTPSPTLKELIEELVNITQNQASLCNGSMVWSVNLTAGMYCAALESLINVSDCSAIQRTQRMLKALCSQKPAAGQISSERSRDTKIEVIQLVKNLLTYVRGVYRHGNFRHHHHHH

B1: Ab4 (antibody, V domains shown)
VH: EVQLVQSGAEVKKPGASVKVSCKTSGYTFIDYPMYWVRQAPGAGLEWMGYIDPYNGATSYNQNFKGRVTLTADKSTSTAYMELSSLRAGDIAVYYCATAVVATDVMENWGQGTLVTVSS
VL: EIVMTQSPASLSLSQEERVTITCRASQNVRNALAWYQQKPGQAPKLLIYLTSNRYTGVPSRFSGSGSGTDFTFTISSLEPEDVAVYYCLQHWNYPLTFGAGTKVELK
notes: Caninized antibody
B2: Ab22 (antibody, V domains shown)
VH: B1 VH with K12V, T28S, I30T, M34I, M48I, A57G, S59T, G66D
VL: DIVLTQTPLSLSVSPGETASISCKASQNVRNAVAWFRQKPGQSPQALIYLASNRYTGVPDRFSGSGSGTDFTLRISRVEAEDTGDYFCLQHWNYPLTFGAGTKVELK
notes: Caninized antibody
B3: Ab10 (antibody, V domains shown)
VH: B1 VH
VL: B2 VL with L4M, V29L, V33L, A51V, T56P, D85V, F87Y, N93Q
notes: Caninized antibody
B4: Ab21 (antibody, V domains shown)
VH: B1 VH with K12V, T28S, I30T, M34I, M48I, A57G, S59T, G66D
VL: B1 VL with M4L, R24K, L33V, Y36F, L46A, T51A, F73L, V85D, Y87F
notes: Caninized antibody
B5: Ab2 (antibody, V domains shown)
VH: B1 VH with N63K, K65Q, K74T, T98R
VL: B1 VL with M4L, R24K, L33V, Y36F, L46A, T51A, F73L, V85D, Y87F
notes: Caninized antibody
B6: Ab1 (antibody, V domains shown)
VH: B1 VH
VL: B1 VL with M4L, R24K, L33V, Y36F, L46A, T51A, F73L, V85D, Y87F
notes: Caninized antibody
B7: Ab3 (antibody, V domains shown)
VH: B1 VH with K12V, T28S, I30T, M34I, M48I, A57G, S59T, G66D
VL: B1 VL
notes: Caninized antibody
B8: Ab8 (antibody, V domains shown)
VH: B1 VH with N63K, K65Q, K74T, T98R
VL: B1 VL with N28S, N31S, L50G, N93S
notes: Caninized antibody
B9: Ab6 (antibody, V domains shown)
VH: B1 VH with K12V, T28S, I30T, M34I, M48I, A57G, S59T, G66D
VL: B1 VL with N28S, N31S, L50G, N93S
notes: Caninized antibody
B10: Ab24 (antibody, V domains shown)
VH: B1 VH
VL: B2 VL
notes: Caninized antibody
B11: Ab12 (antibody, V domains shown)
VH: B1 VH with K12V, T28S, I30T, M34I, M48I, A57G, S59T, G66D
VL: DIVMTQTPLSLSVSPGETASISCKASQSLRSALAWFRQKPGQSPQRLIYLVSNRYPGVPDRFSGSGSGTDFTLRISRVEAEDTGVYYCLQHWQFPLTFGAGTKVELK
notes: Caninized antibody
B12: Ab9 (antibody, V domains shown)
VH: B1 VH with N63K, K65Q, K74T, T98R
VL: B2 VL
notes: Caninized antibody
B13: Ab23 (antibody, V domains shown)
VH: B1 VH with K12V, T28S, I30T, M34I, M48I, A57G, S59T, G66D
VL: B11 VL with S28N, S31N, R46A, F94Y
notes: Caninized antibody
B14: Ab11 (antibody, V domains shown)
VH: B1 VH with N63K, K65Q, K74T, T98R
VL: B11 VL with S28N, S31N, R46A, F94Y
notes: Caninized antibody
B15: Ab5 (antibody, V domains shown)
VH: B1 VH with N63K, K65Q, K74T, T98R
VL: B1 VL
notes: Caninized antibody
B16: Ab14 (antibody, V domains shown)
VH: B1 VH with N63K, K65Q, K74T, T98R
VL: B11 VL
notes: Caninized antibody
B17: 32A10-#20 mouse monoclonal antibody (antibody, V domains shown)
VH: EVQLQQSGPELVKPGASVKVSCKTSGYSFTDYPIYWVRQSHGESLEWIGYIDPYNGGTTYNQNFKDKATLTVDKSSSTAFMHLNSLTSEDSAVYFCATAVVATDVMENWGQGTSVTVSS
VL: DIVLTQSQKFMSTSVGDRVSITCKASQNVRNAVAWFQQKPGQSPKALIYLASNRYTGVPDHFTGSGSGTDFTLTISNVQSEDLADYFCLQHWNYPLTFGAGTKLELK
notes: also called Mouse 32A10; Parental antibody (Mouse 32A10)
B18: Chimeric 32A10 CO (antibody, V domains shown)
VH: B17 VH with E1Q, Q5K, N84Y
VL: B17 VL
notes: also called Chimeric antibody (CO type)

Numbering of substitutions follows the chain as printed. Values joined by “and” are separate entries in the source; they are usually repeats but may differ in a detail not shown here. Equal values may be shown once.

As a reminder, the EC50 is the concentration at which the effect is half-maximal.

One assay concerns the target T1, recombinant histidine-tagged canine …. The assay is described as follows: ELISA, His-tagged cIL-13 on nickel plate. As for the experimental part: A conventional ELISA method was used to assess the antigen reactivity of the caninized antibodies. The inventors of the present invention coated 96-well nickel plates with His-tagged cIL-13 at a concentration of 1 μg/mL and incubated the plates at room temperature for 1 hour. Wells were washed three times using 200 μL of wash buffer per well; the wash buffer consisted of 1×PBS containing 0.1% Tween-20. In one embodiment of the present disclosure, diluted antibodies were added to the wells at 100 μL per well and incubated again at room temperature for 1 hour. The dilution buffer used was a 1:1 mixture of 25 mL of 1× casein solution and 25 mL of 1×PBS. Next, 50 μL of HRP-conjugated goat anti-human IgG was diluted in 10 mL of dilution buffer and dispensed at 100 μL per well, followed by incubation at room temperature for 1 hour. The wells were then washed three times with 200 μL of wash buffer. TMB substrate (50 μL per well) was added. The plates were incubated at room temperature for 10 minutes. The reaction was stopped by adding 50 μL per well of 1 N sulfuric acid as a stop solution, and absorbance was measured at 450 nm using a spectrophotometer.
A general note: ELISA stands for enzyme-linked immunosorbent assay.
Take B1: the half-maximal effective concentration (EC50) turned out to be 0.0572 µg/mL. On the same count and under the same terms, then B2, with 0.137 µg/mL; and B3, with 0.0819 µg/mL; and B4, with 0.122 µg/mL. On to B5, for which the concentration giving a half-maximal response (EC50) was determined as 0.0782 µg/mL. Same read-out and setting: then B6, with 0.0564 µg/mL; and B7, with 0.0459 µg/mL.

Consider B8, for which the EC50 was found to be 12.4 µg/mL.

In the case of B9, the EC50 stood at 0.246 µg/mL. In the case of B10, the EC50 worked out at 0.134 µg/mL. Same read-out and setting: the figure for B11 is 4.39 µg/mL; for B12 it is 0.0926 µg/mL. Same read-out and setting: the figure for B13 is 0.108 µg/mL; for B14 it is 0.111 µg/mL; for B15 it is 0.0765 µg/mL. Still for that read-out and setting: the figure for B16 is 1.78 µg/mL.

For another assay the target is unchanged. Description: ELISA, cIL-13-coated plate.
For B17, the EC50 is 0.0694 µg/mL and 0.463 nM.

Another assay has the same target. Description: ELISA, His-tagged cIL-13 on nickel-coated plate. As for the experimental part:
In one embodiment of the present disclosure, recombinant canine IL-13 (cIL-13) protein with a histidine tag was dispensed onto nickel-coated plates (Thermo Fisher, #15442) at 100 ng/100 μL per well and incubated at room temperature for 1 hour. The plates were then washed three times with 1×PBST, and serial dilutions of the chimeric antibodies in 1×PBS were added and incubated at room temperature for 1 hour to allow antigen-antibody binding. After three washes with 1×PBST, an HRP-conjugated secondary antibody that cross-reacts with canine antibodies was diluted 1:100 in casein buffer and added at 100 μL per well, followed by incubation at 37° C. for 30 minutes. The HRP-conjugated secondary antibody used may be Jackson ImmunoResearch, #115-036-071, and the casein buffer may be Thermo Fisher Scientific, #37528; however, these examples are not intended to limit the scope of the present disclosure. After another three washes with 1×PBST, TMB was added to initiate color development, and the reaction was terminated by the addition of an equal volume of 1.0 N sulfuric acid.
Consider B17, for which the EC50 is 0.218 µg/mL and 1.45 nM. For the molecule B18, the 50% effective concentration (EC50) was 0.162 µg/mL and 1.08 nM.

The target is the same in a further assay. The assay is described as follows: cell-based or functional assay.
Regarding B17, the “TF-1 cell proliferation inhibition IC50 (Average)” value is 437 ng/ml and 2.91 nM; the “TF-1 cell proliferation inhibition IC50 (Test 1)” value is 494 ng/ml and 3.29 nM; the “TF-1 cell proliferation inhibition IC50 (Test 2)” value was 492 ng/ml and 3.28 nM; the “TF-1 cell proliferation inhibition IC50 (Test 3)” value is 325 ng/ml and 2.17 nM.

The target is the same in the next assay. The assay is described as follows: cell-based or functional assay. This is another data set of the same source.
With B17, the “inhibition of IL-13-dependent TF-1 cell proliferation, IC50” value is 2.9 to 4.2 nM.

The target is the same in the next assay. The assay is described as follows: cell-based or functional assay. This is another data set of the same source.
Turning to B17, the “Inhibitory Activity on TF-1 Cell Proliferation IC50” value amounted to 3.97 nM.

For a further assay the target is unchanged. The assay is described as follows: cell-based or functional assay. The source holds these as a separate data set.
B1: the “TF-1 cell proliferation inhibition IC50” value stood at 71.5 nM. For B2, the “TF-1 cell proliferation inhibition IC50” value came to 0.98 nM. Still for that read-out and setting: then B4, with 1.13 nM. On to B7, for which the “TF-1 cell proliferation inhibition IC50” value is 52.7 nM.

In the case of B10, the “TF-1 cell proliferation inhibition IC50” value is 4.09 nM. For the molecule B13, the “TF-1 cell proliferation inhibition IC50” value came out at 35.2 nM.

Consider B15, for which the “TF-1 cell proliferation inhibition IC50” value was determined as 34.2 nM.

The values above are taken from US20260234238A1 (GEOVISTA, published 2026).
